Experimental data: publication PMC10672205, “Towards a High-Affinity Peptidomimetic Targeting Proliferating Cell Nuclear Antigen from Aspergillus fumigatus” (Journal of Fungi, 2023)
Like-named read-outs stand apart in the source and are kept apart here. Ends that are not written are not given here. Peptide text beside a SMILES is read from it.

What was measured:
[1] = molecular target: Aspergillus fumigatus proliferating cell nuclear antigen (Aspergillus fumigatus); assay: SPR
[2] = molecular target: afumPCNA (A. fumigatus PCNA) (Aspergillus fumigatus, UniProt A0A229Y5V5); assay: biochemical; type: binding
Procedure: Surface plasmon resonance (SPR) experiments were performed as previously described. The running buffer used for ligand attachment and analyte-binding experiments was a 10 mM HEPES buffer with 150 mM NaCl, 3 mM EDTA, and 0.05% Tween-20, adjusted to pH 7.4 with 2 M NaOH. A GE CM5 (series S) sensor chip was primed with the running buffer and preconditioned with successive injections (2 × 50 s, 30 μL/min) of 50 mM NaOH, 10 mM HCl, 0.1% SDS, 0.85% H3PO4, and 50 mM glycine pH 9.5, respectively. The surface was then activated with an injection of 0.2 M 1-ethyl-3-(3-dimethylaminopropyl)carbodiimide (EDC) and 50 mM N-hydroxysuccinimide (NHS) (600 s, 10 μL/min). A. fumigatus PCNA (5 μL, 12 mg/mL) was diluted into the running buffer (245 μL). Upon the preactivation of the surface, the protein was further diluted to a final concentration of 25 μg/mL in 10 mM NaAc (~pH 4.6). This solution was immediately injected over the target flow cell (10 μL/min) to immobilize ~1500 RU. Both the target and reference flow cells were then blocked with 1.0 M ethanolamine at pH 8.5 (600 s, 10 μL/min). The chip was left to stabilize before sample injections commenced.
Peptide stock solutions for use in SPR experiments were prepared in MilliQ water. The peptide stock concentration was determined via 205 nm absorbance with NanoDrop2000. The ε205 for each peptide was calculated using an online calculator (http://nickanthis.com/tools/a205.html, accessed on 22 August 2022 [24]); however, additional glycine residue was added to each peptide sequence to account for the terminal amide of the peptides synthesized in-house. The peptide stock solution’s concentration was then calculated using Beer’s Law.
A 2-fold serial dilution was performed for each peptide, with 8 samples injected sequentially from the lowest to highest concentrations; they were preceded by a buffer-only blank injection. After each injection, the surface was regenerated with 2 M NaCl (2 × 30 s, 25 μL/min). All data were analyzed using the GE Biosystems Biacore S200 Evaluation Software, Version 1.0 (Build: 20).

[3] = molecular target: T1, human proliferating cell nuclear antigen (human, UniProt P12004 1-259); assay: SPR; peptide against human PCNA, tested in triplicate; immobilisation of human PCNA not described here (SPR as previously described, ref. 18); settings: both partners purified
T1 construct: also called hPCNA; human PCNA

[4] = afumPCNA Binding Affinity KD (nM) ± SD (nM)
[5] = read-out: afumPCNA Binding Affinity KD (nM) ± SD, SPR steady-state affinity, afumPCNA immobilised on CM5 chip (~1500 RU), 10 mM HEPES, 150 mM NaCl, 3 mM EDTA, 0.05% Tween-20, pH 7.4, 8 x 2-fold dilutions, contact 40 s, dissociation 30 s, KD ± SD
[6] = afumPCNA Binding Affinity KD (nM) ± KD SD (nM)

T1 sequence (P12004 1-259): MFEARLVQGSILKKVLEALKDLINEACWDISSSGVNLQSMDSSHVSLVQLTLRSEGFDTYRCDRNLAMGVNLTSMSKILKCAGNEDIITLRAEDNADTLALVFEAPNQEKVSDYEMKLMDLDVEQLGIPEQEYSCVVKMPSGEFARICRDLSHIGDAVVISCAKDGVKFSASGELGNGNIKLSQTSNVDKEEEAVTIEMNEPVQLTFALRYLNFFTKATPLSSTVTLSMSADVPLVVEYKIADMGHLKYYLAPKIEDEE

p21µ peptide (141-155)
Kd [1]: 265 nM

CSCC[C@H](NC(=O)[C@H](CO)NC(=O)[C@@H](NC(=O)[C@H](CCC(N)=O)NC(=O)[C@H](CCCNC(=N)N)NC(=O)[C@H](CCCNC(=N)N)NC(=O)[C@@H](N)CCCCN)[C@@H](C)O)C(=O)N[C@H](C(=O)N[C@@H](CC(=O)O)C(=O)N[C@@H](Cc1ccc(O)cc1)C(=O)N[C@@H](Cc1ccccc1)C(=O)N[C@@H](Cc1c[nH]cn1)C(=O)N[C@@H](CO)C(=O)N[C@@H](CCCCN)C(=O)N[C@@H](CCCNC(=N)N)C(N)=O)[C@@H](C)O [p21μ-FY150151YF] (H-KRRQTSMTDYFHSKR-NH2)
Kd [2, 4]: 96.4 ± 19.6 nM

p21µ-FY150151YF peptide
Kd [1]: 96.4 nM

CSCC[C@H](NC(=O)[C@H](CO)NC(=O)[C@H](CCCCN)NC(=O)[C@H](CCC(N)=O)NC(=O)[C@H](CCCNC(=N)N)NC(=O)[C@H](CCCNC(=N)N)NC(=O)[C@@H](N)CCCCN)C(=O)N[C@H](C(=O)N[C@@H](CC(=O)O)C(=O)N[C@@H](Cc1ccccc1)C(=O)N[C@@H](Cc1ccc(O)cc1)C(=O)N[C@@H](Cc1c[nH]cn1)C(=O)N[C@@H](CO)C(=O)N[C@@H](CCCCN)C(=O)N[C@@H](CCCNC(=N)N)C(N)=O)[C@@H](C)O [p21μ-T145K] (H-KRRQKSMTDFYHSKR-NH2)
Kd [2, 5]: 10000 nM

CC[C@H](C)[C@H](NC(=O)[C@H](CCCNC(=N)N)NC(=O)[C@@H](NC(=O)[C@H](CCC(N)=O)NC(=O)[C@H](CCCNC(=N)N)NC(=O)[C@H](CCCNC(=N)N)NC(=O)[C@@H](N)CCCCN)[C@@H](C)O)C(=O)N[C@H](C(=O)N[C@@H](CCC(=O)O)C(=O)N[C@@H](Cc1ccc(O)cc1)C(=O)N[C@@H](Cc1ccccc1)C(=O)N[C@@H](Cc1c[nH]cn1)C(=O)N[C@@H](CO)C(=O)N[C@@H](CCCCN)C(=O)N[C@@H](CCCNC(=N)N)C(N)=O)[C@@H](C)O [p21μ-RD2] (H-KRRQTRITEYFHSKR-NH2)
Kd ([2]; Affinity KD (nM) (Table S1)): 20.3 nM

CC[C@H](C)[C@H](NC(=O)[C@H](CO)NC(=O)[C@H](CCCNC(=N)N)NC(=O)[C@@H](NC(=O)[C@H](CCCNC(=N)N)NC(=O)[C@H](CCC(N)=O)NC(=O)[C@H](CCCNC(=N)N)NC(=O)[C@H](CCCNC(=N)N)NC(=O)[C@@H](N)CCCCN)C(C)C)C(=O)N[C@@H](C)C(=O)N[C@@H](CO)C(=O)N[C@@H](Cc1ccccc1)C(=O)N[C@@H](Cc1ccccc1)C(=O)N[C@@H](Cc1c[nH]cn1)C(=O)N[C@@H](CO)C(=O)N[C@@H](CCCCN)C(=O)N[C@@H](CCCNC(=N)N)C(N)=O [p21μafumDNALIG] (H-KRRQRVRSIASFFHSKR-NH2)
Kd [2, 6]: 458 ± 118 nM

CC(C)C[C@H](NC(=O)[C@H](CCCNC(=N)N)NC(=O)[C@H](CO)NC(=O)[C@H](CCC(N)=O)NC(=O)[C@H](CCCNC(=N)N)NC(=O)[C@H](CCCNC(=N)N)NC(=O)[C@@H](N)CCCCN)C(=O)N[C@@H](CCC(=O)O)C(=O)NCC(=O)N[C@@H](Cc1ccccc1)C(=O)N[C@@H](Cc1ccccc1)C(=O)N[C@@H](Cc1c[nH]cn1)C(=O)N[C@@H](CO)C(=O)N[C@@H](CCCCN)C(=O)N[C@@H](CCCNC(=N)N)C(N)=O [p21μafumFEN1] (H-KRRQSRLEGFFHSKR-NH2)
Kd [2, 6]: 713 ± 56.9 nM

CSCC[C@H](NC(=O)[C@H](CCCNC(=N)N)NC(=O)[C@H](CCCNC(=N)N)NC(=O)[C@@H](N)CCCCN)C(=O)N[C@H](C(=O)N[C@@H](CO)C(=O)N[C@@H](CCSC)C(=O)N[C@H](C(=O)N[C@@H](CC(=O)O)C(=O)N[C@@H](Cc1ccccc1)C(=O)N[C@@H](Cc1ccc(O)cc1)C(=O)N[C@@H](Cc1c[nH]cn1)C(=O)N[C@@H](CO)C(=O)N[C@@H](CCCCN)C(=O)N[C@@H](CCCNC(=N)N)C(N)=O)[C@@H](C)O)[C@@H](C)O [p21μ-Q144M] (H-KRRMTSMTDFYHSKR-NH2)
Kd [2, 5]: 41400 nM

CC[C@H](C)[C@H](NC(=O)[C@H](CC(=O)O)NC(=O)[C@@H](NC(=O)[C@@H]1CCCN1C(=O)[C@H](CCSC)NC(=O)[C@H](CCCNC(=N)N)NC(=O)[C@H](CCCNC(=N)N)NC(=O)[C@@H](N)CCCCN)[C@@H](C)O)C(=O)N[C@@H](CCCNC(=N)N)C(=O)N[C@@H](CC(N)=O)C(=O)N[C@@H](Cc1ccccc1)C(=O)N[C@@H](Cc1ccccc1)C(=O)N[C@@H](Cc1c[nH]cn1)C(=O)N[C@@H](CO)C(=O)N[C@@H](CCCCN)C(=O)N[C@@H](CCCNC(=N)N)C(N)=O [p21μafumRFC] (H-KRRMPTDIRNFFHSKR-NH2)
Kd [2, 6]: 94.8 ± 8.76 nM

CSCC[C@H](NC(=O)[C@H](CO)NC(=O)[C@@H](NC(=O)[C@H](CCC(N)=O)NC(=O)[C@H](CCCNC(=N)N)NC(=O)[C@H](CCCNC(=N)N)NC(=O)[C@@H](N)CCCCN)[C@@H](C)O)C(=O)N[C@H](C(=O)N[C@@H](CC(=O)O)C(=O)N[C@@H](Cc1ccccc1)C(=O)N[C@@H](Cc1ccc(O)cc1)C(=O)N[C@@H](Cc1c[nH]cn1)C(=O)N[C@@H](CO)C(=O)N[C@@H](CCCCN)C(=O)N[C@@H](CCCNC(=N)N)C(N)=O)[C@@H](C)O [p21μ]
Kd [2, 4]: 265 ± 5.9 nM

CSCC[C@H](NC(=O)[C@H](CO)NC(=O)[C@H](CC(=O)O)NC(=O)[C@H](CCC(N)=O)NC(=O)[C@H](CCCNC(=N)N)NC(=O)[C@H](CCCNC(=N)N)NC(=O)[C@@H](N)CCCCN)C(=O)N[C@H](C(=O)N[C@@H](CC(=O)O)C(=O)N[C@@H](Cc1ccccc1)C(=O)N[C@@H](Cc1ccc(O)cc1)C(=O)N[C@@H](Cc1c[nH]cn1)C(=O)N[C@@H](CO)C(=O)N[C@@H](CCCCN)C(=O)N[C@@H](CCCNC(=N)N)C(N)=O)[C@@H](C)O [p21μ-T145D] (H-KRRQDSMTDFYHSKR-NH2)
Kd ([2]; Affinity KD (nM) (Table S1), SPR steady-state affinity against AfumPCNA, 8x 1 in 2 dilutions from Top Conc, On/Off 40/30 s): 4110 nM

KRRQKSMTDFYHSKR-NH2 [p21µ-T145K peptide]
Kd [1]: 10000 nM

KRRQDSMTDFYHSKR-NH2 [p21µ-T145D peptide]
Kd [1]: 4100 nM

KRRQTSMTDFFHSKR-NH2 [p21µ-Y151F peptide]
Kd [1]: 167 nM

KRRQTRITEYFHSKR-NH2 [p21µ-RD2 peptide]
Kd [1]: 20.3 nM

B1: p21µ-afumRFC peptide (peptide)
peptide: KRRMPTDIRNFFHSKR-NH2
notes: also called p21μafumRFC; p21µRFC; source: synthetic peptide, Genscript Biotech (>95%, HPLC)
Kd [3]: 295 nM

KRRMTSMTDFYHSKR-NH2 [p21µ-Q144M peptide]
Kd [1]: 41400 nM

KRRQTSLTDFYHSKR-NH2 [p21µ-M147L peptide]
Kd [1]: 382 nM

KRRQTSMTEFYHSKR-NH2 [p21µ-D149E peptide]
Kd [1]: 401 nM

KRRQTSITDFYHSKR-NH2 [p21µ-M147I peptide]
Kd [1]: 37.1 nM
